The nature of this data set: SPR membrane binding to POPC/POPS/PI(4,5)P2 vesicles. Conditions: for affinity for POPC/POPS/PI(4,5)P2 (77:20:3) relative to WT: in words; for Kd: L1 chip, 23 °C, 20 mM Tris, pH 7.4, 0.16 M NaCl, average ±S.D., n = 3, read-out: Kd for lipid binding, PC/PS/PI(4,5)P2; for PI(4,5)P2 selectivity over POPC/POPS (80:20) / binding to POPC/POPS/PI(4,5)P2 (77:20:3): RU/RUmax. The text has this: It has been generally thought that Smad2 and Smad3 are targeted to the activated TGF-β signaling complex by direct interaction with TβRI ([1], [2]) or via SARA ([7]). However, it has been shown that many cytosolic proteins that are targeted to membrane proteins or membrane-anchored signaling complexes have affinity for membrane lipids ([14]), phosphoinositides (PtdInsPs) in particular, and that their membrane recruitment is mediated by coincident lipid–protein and protein–protein interactions ([15], [16]). For most of these proteins, their PtdInsP specificity directs their membrane targeting behaviors: e.g., PI(4,5)P2-specific proteins are recruited to PM where the highest concentration of PI(4,5)P2 is found, whereas PI(3)P-specific proteins are targeted to PI(3)P-rich EEs ([17], [18]). To resolve uncertainty about the functional location of the activated TGF-β signaling complex, we thus explored the possibility that lipid-binding activity of Smad2 may play a role in specific targeting of Smad2 to the active TGF-β receptor complex either at the PM or at EEs. Lipid-binding activity of Smad proteins has not been reported to date. We thus measured the binding of bacterially expressed Smad2 to large unilamellar vesicles (LUVs) containing various lipids by surface plasmon resonance (SPR) analysis ([19], [20]). Lipid selectivity determined by SPR analysis is typically reported as the relative resonance unit (RU) values for different lipids at a given protein concentration ([21], [22]). Although simple and intuitive, this type of analysis can sometimes yield misleading and erroneous results because some proteins show widely different RU values when bound to different lipid surfaces. Thus, a more reliable parameter that represents the fraction of the membrane bound protein molecules at a given protein concentration would be a normalized value of RU/RUmax where RUmax indicates the maximal RU value when a given lipid surface is saturated with the protein molecules. We thus estimated RUmax for different lipid species by employing the highest protein concentration experimentally feasible (e.g., 1 μM) and determined RU/RUmax for different lipids at the protein concentration that allows robust comparison (e.g., 100 nM). Once the lipid selectivity has been determined by this semiquantitative approach, we then rigorously determined and compared Kd values for selected lipids for more accurate quantitative determination of lipid selectivity.
Figure 1 Membrane-binding properties of Smad2 FL protein and MH2 domain determined by SPR analysis.A, PtdInsP selectivity of Smad2-FL determined using POPC/POPS/PtdInsP (77:20:3 in mole ratio) LUVs coated on the L1 sensor chip. The protein concentration was 100 nM. PIP3 indicates PI(3,4,5)P3. B, determination of Kd for binding of Smad2 FL to different LUVs. The protein concentration was varied from 0 to 500 nM. C, PI(4,5)P2 concentration dependence of membrane binding of Smad2-FL determined using POPC/POPS/PI(4,5)P2 (77-x:20:x, x = 0–5 mol%) LUVs. The protein concentration was 100 nM. D, PtdInsP selectivity of the Smad2 MH2 domain determined using POPC/POPS/PtdInsP (77:20:3 in mole ratio) LUVs. The protein concentration was 100 nM. Normalized RU values (RU/RUmax) were used for all figures but (C) for more accurate determination of PtdInsP selectivity. RUmax values determined for different vesicles at 1 μM Smad2 were: 280 ± 20 for POPC/POPS/PI(4,5)P2 (77:20:3), 370 ± 10 for POPC/POPS/PI(3,4)P2 (77:20:3), 400 ± 15 for POPC/POPS/PI(3,4,5)P3 (or PIP3) (77:20:3), 400 ± 20 for POPC/POPS/PI(3)P (77:20:3), and 380 ± 20 for POPC/POPS (80:20). Only the association phases of the sensorgrams are shown and used for further analysis. Each set of sensorgrams shown in A and D are representatives of >5 independent measurements. Data points shown in B and C are the average ±S.D. values from triplicate measurements. […]

The mark [1] stands for this setting: SPR, POPC/POPS/PI(4,5)P2 (77:20:3).

Numbering of substitutions follows the chain as printed. Names and notes keep the numbering of the source. “Also recorded” adds a separate entry of the source.

B1: Smad2-W422A: W422A mutant of full-length Smad2; specific PI(4,5)P2 binding-compromised (protein)
chain: MSSILPFTPPVVKRLLGWKKSAGGSGGAGGGEQNGQEEKWCEKAVKSLVKKLKKTGRLDELEKAITTQNCNTKCVTIPSTCSEIWGLSTANTVDQWDTTGLYSFSEQTRSLDGRLQVSHRKGLPHVIYCRLWRWPDLHSHHELKAIENCEYAFNLKKDEVCVNPYHYQRVETPVLPPVLVPRHTEILTELPPLDDYTHSIPENTNFPAGIEPQSNYIPETPPPGYISEDGETSDQQLNQSMDTGSPAELSPTTLSPVNHSLDLQPVTYSEPAFWCSIAYYELNQRVGETFHASQPSLTVDGFTDPSNSERFCLGLLSNVNRNATVEMTRRHIGRGVRLYYIGGEVFAECLSDSAIFVQSPNCNQRYGWHPATVCKIPPGCNLKIFNNQEFAALLAQSVNQGFEAVYQLTRMCTIRMSFVKGAGAEYRRQTVTSTPCWIELHLNGPLQWLDKVLTQMGSPSVRCSSMS
modifications: left off: His6, N-terminal, state not stated
For B1, the “affinity for POPC/POPS/PI(4,5)P2 (77:20:3) relative to WT” value (SPR, Kd comparison) is “three- to five-fold lower affinity”. Further, the Kd under setting [1] was 470 ± 96 nM. Further, where the note is “SPR, 100 nM protein”, the “PI(4,5)P2 selectivity over POPC/POPS (80:20)” value is “essentially no PI(4,5)P2 selectivity; also recorded: lost the PI(4,5)P2 selectivity” and the “binding to POPC/POPS/PI(4,5)P2 (77:20:3)” value is “greatly reduced binding”.

B2: Smad2-K420A: K420A mutant of full-length Smad2; predominantly TβRI binding-compromised (protein)
chain: B1 chain with K420A, A422W
modifications: left off: His6, N-terminal, state not stated
For the molecule B2, the Kd under setting [1] was determined as 120 ± 12 nM. In addition, the “binding to POPC/POPS/PI(4,5)P2 (77:20:3)” value (SPR, 100 nM protein) was “modestly and similarly reduced binding to both vesicles”. Moreover, under “SPR, decrease in affinity vs WT”, the “lower affinity for POPC/POPS/PI(4,5)P2 (77:20:3) than WT” value worked out at 20%.

B3: Smad2-E425K: charge-reversal mutant of full-length Smad2; PI(4,5)P2 and TβRI binding-enhanced (protein)
chain: B1 chain with A422W, E425K
modifications: left off: His6, N-terminal, state not stated
As to B3, the Kd under setting [1] worked out at 70 ± 7 nM. Besides, for the setting “SPR, 100 nM protein”, the “PI(4,5)P2 selectivity over POPC/POPS (80:20)” value is “retaining the PI(4,5)P2 selectivity of WT” and the “binding to POPC/POPS/PI(4,5)P2 (77:20:3)” value was “modestly higher membrane binding than WT”. For the same molecule, the “higher affinity for POPC/POPS/PI(4,5)P2 (77:20:3) than WT” value (SPR, increase in affinity vs WT) was ~40%.

B4: Smad2 WT: bacterially expressed full-length Smad2 wild-type (protein)
chain: B1 chain with A422W
modifications: left off: His6, N-terminal, state not stated
notes: bacterially expressed full-length Smad2 wild-type
Regarding B4, under “POPC/POPS/PI(4,5)P2 (77:20:3), 1 μM Smad2”, the RUmax is on record as 280 ± 20. Where the note is “SPR, Kd comparison”, the “affinity for PI(4,5)P2-containing vesicles relative to PI(3)P-containing ones” value was “twofold higher affinity” and the “increase in membrane affinity by 3 mol% PI(4,5)P2 over POPC/POPS (80:20) vesicles” value was determined as 5.6 fold. For the same molecule, under setting [1], the Kd is 100 ± 20 nM. Further, for the setting “SPR, POPC/POPS/PI(4,5)P2 (77-x:20:x, x = 0–5 mol%), 100 nM protein”, the “PI(4,5)P2 concentration dependence of membrane binding” value was “dependent on the PI(4,5)P2 concentration”.

B5: Smad2- R427A/R428A: double mutant of full-length Smad2; PI(4,5)P2 and TβRI binding-compromised (protein)
chain: B1 chain with A422W, R427A, R428A
modifications: left off: His6, N-terminal, state not stated
In the case of B5, the “affinity for POPC/POPS/PI(4,5)P2 (77:20:3) relative to WT” value (SPR, Kd comparison) is given as “three- to five-fold lower affinity”. Also, under setting [1], the Kd was determined as 340 ± 53 nM. Further, under “SPR, 100 nM protein”, the “PI(4,5)P2 selectivity over POPC/POPS (80:20)” value is listed as “essentially no PI(4,5)P2 selectivity; also recorded: lost the PI(4,5)P2 selectivity” and the “binding to POPC/POPS/PI(4,5)P2 (77:20:3)” value is given as “greatly reduced binding”.

B6: Smad2-Y426A: Y426A mutant of full-length Smad2; specific PI(4,5)P2 binding-compromised (protein)
chain: B1 chain with A422W, Y426A
modifications: left off: His6, N-terminal, state not stated
Turning to B6, the “affinity for POPC/POPS/PI(4,5)P2 (77:20:3) relative to WT” value (SPR, Kd comparison) is “three- to five-fold lower affinity”. Besides, the Kd under setting [1] turned out to be 400 ± 44 nM. Under “SPR, 100 nM protein”, the “PI(4,5)P2 selectivity over POPC/POPS (80:20)” value is on record as “essentially no PI(4,5)P2 selectivity; also recorded: lost the PI(4,5)P2 selectivity” and the “binding to POPC/POPS/PI(4,5)P2 (77:20:3)” value is reported as “greatly reduced binding”.
